Measured values: the supplement of paper PMC9112550, “Optimization of the antimicrobial peptide Bac7 by deep mutational scanning” (BMC Biology, 2022)

Tested on: Escherichia coli TOP10
Assay: shrunken log2 fold change of peptide-encoding DNA abundance (4.5 h post-induction vs induction); higher = less antimicrobial activity (less host growth inhibition)
Details: time post-induction: 4.5 h; library: site-saturation at positions 5, 18, 19, 20
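Further: peptides expressed intracellularly from a pBAD plasmid library in pooled LB shake-flask culture, induced with 0.3% L-arabinose, DNA abundance read by NGS, three biological replicates, DESeq2 with apeglm shrinkage.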

| Sequence | shrunken log2 fold change |
| --- | --- |
| RRIRMRPPRLPRPRPRPMTPPRP | 0.582 |
| RRIRCRPPRLPRPRPRPFIFPRP | -0.425 |
| RRIRMRPPRLPRPRPRPASDPRP | 0.869 |
| RRIRSRPPRLPRPRPRPMVWPRP | 0.0214 |
| RRIRERPPRLPRPRPRPDEMPRP | -0.0223 |
| RRIRERPPRLPRPRPRPYRGPRP | -0.00417 |
| RRIRMRPPRLPRPRPRPQQVPRP | 0.00763 |
| RRIRDRPPRLPRPRPRPVHMPRP | 0.111 |
| RRIRPRPPRLPRPRPRPMYSPRP | -0.386 |
| RRIRTRPPRLPRPRPRPNDEPRP | -0.0966 |
| RRIRERPPRLPRPRPRPVIVPRP | -0.373 |
| RRIRWRPPRLPRPRPRPYPLPRP | -0.0066 |
| RRIRFRPPRLPRPRPRPQTWPRP | -0.743 |
| RRIRPRPPRLPRPRPRPECNPRP | -0.0298 |
| RRIRTRPPRLPRPRPRPQLMPRP | -0.137 |
| RRIRARPPRLPRPRPRPSHYPRP | -0.0225 |
| RRIRFRPPRLPRPRPRPRNNPRP | -0.381 |
| RRIRCRPPRLPRPRPRPQCWPRP | 0.0604 |
| RRIRIRPPRLPRPRPRPASTPRP | -0.0836 |
| RRIRCRPPRLPRPRPRPPFMPRP | 0.114 |
| RRIRCRPPRLPRPRPRPKKFPRP | -0.00227 |
| RRIRNRPPRLPRPRPRPQLMPRP | -0.0332 |
| RRIRHRPPRLPRPRPRPFKMPRP | -0.274 |

| Sequence | shrunken log2 fold change |
| --- | --- |
| RRIRRRPPRLPRPRPRPRLGPRP | 0.76 |
| RRIRHRPPRLPRPRPRPQMDPRP | -0.106 |
| RRIRIRPPRLPRPRPRPDRWPRP | 0.0549 |
| RRIRPRPPRLPRPRPRPLPTPRP | 0.42 |
| RRIRFRPPRLPRPRPRPSYKPRP | -0.819 |
| RRIRSRPPRLPRPRPRPNLDPRP | -0.0975 |
| RRIRIRPPRLPRPRPRPPVMPRP | 0.126 |
| RRIRQRPPRLPRPRPRPGRDPRP | 3.85 |
| RRIRARPPRLPRPRPRPPLLPRP | 0.543 |
| RRIRLRPPRLPRPRPRPRDPPRP | 0.968 |
| RRIRLRPPRLPRPRPRPDNHPRP | -0.519 |
| RRIRKRPPRLPRPRPRPRGSPRP | 0.319 |
| RRIRQRPPRLPRPRPRPGGTPRP | 0.11 |
| RRIRVRPPRLPRPRPRPDQYPRP | -0.234 |
| RRIRIRPPRLPRPRPRPDKRPRP | -0.0405 |
| RRIRRRPPRLPRPRPRPISLPRP | -0.224 |
| RRIRRRPPRLPRPRPRPLFPPRP | 0.0907 |
| RRIRDRPPRLPRPRPRPYSYPRP | -0.0279 |
| RRIRMRPPRLPRPRPRPLNRPRP | 0.0437 |
| RRIRNRPPRLPRPRPRPAFAPRP | 0.158 |
| RRIRGRPPRLPRPRPRPHQLPRP | 0.339 |
| RRIRARPPRLPRPRPRPQKFPRP | -0.509 |
| RRIRHRPPRLPRPRPRPSFMPRP | -0.699 |

| Sequence | shrunken log2 fold change |
| --- | --- |
| RRIRCRPPRLPRPRPRPGQRPRP | 0.0965 |
| RRIRLRPPRLPRPRPRPNFLPRP | -0.153 |
| RRIRHRPPRLPRPRPRPDMHPRP | -0.329 |
| RRIRDRPPRLPRPRPRPDHYPRP | -0.183 |
| RRIRIRPPRLPRPRPRPDRSPRP | -0.364 |
| RRIRERPPRLPRPRPRPQELPRP | -0.755 |
| RRIRGRPPRLPRPRPRPIRAPRP | 0.602 |
| RRIRYRPPRLPRPRPRPKGWPRP | 0.465 |
| RRIRDRPPRLPRPRPRPNGVPRP | -0.0244 |
| RRIRVRPPRLPRPRPRPGENPRP | -0.0226 |
| RRIRGRPPRLPRPRPRPRVGPRP | 1.02 |
| RRIRDRPPRLPRPRPRPMFNPRP | -0.0203 |
| RRIRPRPPRLPRPRPRPQIIPRP | -0.447 |
| RRIRPRPPRLPRPRPRPYLGPRP | 3.16 |
| RRIRMRPPRLPRPRPRPLNYPRP | -0.124 |
| RRIRWRPPRLPRPRPRPKWRPRP | 0.428 |
| RRIRYRPPRLPRPRPRPQLIPRP | -0.3 |
| RRIRFRPPRLPRPRPRPYAAPRP | -0.586 |
| RRIRDRPPRLPRPRPRPIQVPRP | -0.0916 |
| RRIRFRPPRLPRPRPRPITQPRP | -0.278 |
| RRIRPRPPRLPRPRPRPALPPRP | 1.63 |
| RRIRARPPRLPRPRPRPKEPPRP | 0.991 |
| RRIRGRPPRLPRPRPRPAKYPRP | 0.155 |

| Sequence | shrunken log2 fold change |
| --- | --- |
| RRIRNRPPRLPRPRPRPSMEPRP | -0.118 |
| RRIRDRPPRLPRPRPRPAKVPRP | 0.114 |
| RRIRKRPPRLPRPRPRPCQQPRP | -0.0287 |
| RRIRGRPPRLPRPRPRPYWFPRP | 0.105 |
| RRIRVRPPRLPRPRPRPLMSPRP | 0.0187 |
| RRIRGRPPRLPRPRPRPPNPPRP | 0.74 |
| RRIRERPPRLPRPRPRPSCHPRP | -0.934 |
| RRIRIRPPRLPRPRPRPSWDPRP | -0.462 |
| RRIRHRPPRLPRPRPRPKGRPRP | 0.0526 |
| RRIRFRPPRLPRPRPRPTINPRP | -0.508 |
| RRIRARPPRLPRPRPRPAIQPRP | 0.228 |
| RRIRVRPPRLPRPRPRPYWAPRP | -0.0239 |
| RRIRHRPPRLPRPRPRPKSVPRP | -0.0127 |
| RRIRERPPRLPRPRPRPEHAPRP | -0.0115 |
| RRIRNRPPRLPRPRPRPTRTPRP | 0.211 |
| RRIRVRPPRLPRPRPRPDMNPRP | -0.548 |
| RRIRDRPPRLPRPRPRPYFVPRP | -0.362 |
| RRIRCRPPRLPRPRPRPCSEPRP | -0.495 |
| RRIRRRPPRLPRPRPRPIKYPRP | 0.0338 |
| RRIRWRPPRLPRPRPRPHTQPRP | -0.56 |
| RRIRQRPPRLPRPRPRPLKPPRP | 0.0722 |
| RRIRGRPPRLPRPRPRPGVDPRP | 0.951 |
